# Measurements reported in patent US20190177416A1 (NANOMAB TECHNOLOGY, published 2019).
# Target: T1, human PD-L1 protein (coated antigen) (human, UniProt Q9NZQ7 19-238, limits assumed)
# T1 construct: Construct not described; also called PD-L1 antigen; antigenic protein PD-L1
# Assay: PE-ELISA, crude extract on coated PD-L1
# Protocol: (1) From the cell culture dishes containing phage after 3-4 rounds of screening in Example 2, 1000 individual colonies were selected and inoculated into TB medium containing 100 μg/ml of ampicillin (1 liter of TB medium contains 2.3 g of potassium dihydrogen phosphate, 12.52 g of dipotassium hydrogen phosphate, 12 g of peptone, 24 g of yeast extract, 4 ml of glycerol), after growth to log phase, add a final concentration of […] of IPTG, culture at 28° C. overnight. (2) The crude antibody was obtained by the infiltration method, and the antibody was transferred to an antigen-coated ELISA plate and placed at room temperature for 1 hour. (3) Unbound antibody was washed away with PBST, and a mouse anti-HA tag antibody (anti-mouse anti-HA antibody, purchased from Beijing Kangwei Century Biotechnology Co., Ltd.) was added and placed at room temperature for 1 hour. (4) Unbound antibody was washed away with PBST, and anti-mouse alkaline phosphatase conjugate (goat anti-mouse alkaline phosphatase-labeled antibody, purchased from Amytech Co., Ltd.) was added and placed at room temperature for 1 hour. (5) Wash the unbound antibody with PBST, add alkaline phosphatase coloring solution, and read the absorbance at 405 nm on an ELISA apparatus. (6) When the OD value of the sample well is more than 3 times the OD value of the control well (Ratio+/−>3), it is judged as a positive clone hole. (7) The bacteria of the positive clone well were shaken in a LB liquid containing 100 μg per ml to extract a plasmid and perform sequencing.
# T1 sequence (Q9NZQ7 19-238 limits assumed): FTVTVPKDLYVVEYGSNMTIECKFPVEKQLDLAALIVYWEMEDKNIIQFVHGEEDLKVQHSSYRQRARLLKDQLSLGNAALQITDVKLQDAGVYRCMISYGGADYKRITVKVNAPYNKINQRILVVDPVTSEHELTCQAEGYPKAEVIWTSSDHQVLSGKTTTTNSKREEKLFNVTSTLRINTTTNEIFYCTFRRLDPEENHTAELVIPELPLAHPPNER
row,Binder,OD ratio (experimental group (A405 nm)/control group (A405 nm))
1,"SEQ ID NO 19 (VHH, pMECS-expressed; also called VHH numbered 19) VHH: QVQLQESGGGSVQTGGSLRLSCAASTSIYSNNYMAWFSQAPGKGREGVAAVYIGDGRPYYADSVKGRFTISLDSAKNTVYLQMNSLKPEDTAMYYCAAAPGPLSRNYWYTSANYDYWGQGTQVTVSS",> 20
2,"SEQ ID NO 17 (VHH, pMECS-expressed; also called VHH numbered 17) VHH: QVQLQESGGGSVQTGGSLRLSCAASTSIYSLNYMAWFSQAPGKGREGVAAVYIDDGRPYYADHVKGRFTISLDTAKNTVYLQMNSLKPEDTAMYYCAAAPGPLSRNYWYTSANYDYWGQGTQVTVSS",> 20
3,"SEQ ID NO 21 (VHH, pMECS-expressed; also called VHH numbered 21) VHH: QVQLQESGGGSVQTGGSLRLSCAASTSIYSLNYMAWFSQAPGKGREGVAAVYIGDGRPYYADSVKGRFTISLDSAKNTVYLQMNSLKSEDTAMYYCAAAPGPLSRHYWYTSANYDYWGQGTQVTVSS",> 20
4,"SEQ ID NO 15 (VHH, pMECS-expressed; also called VHH numbered 15) VHH: QVQLQESGGGSVQTGGSLRLSCAASTSIYSNNYMAWFSQAPGKGREGVAAVYIDDGRTYYADSVKGRFTISLDSAKNTVYLQMNSLKPEDTAMYYCAAAPGPLSYNYWYTSANYDYWGQGTQVTVSS",> 20
5,"SEQ ID NO 14 (VHH, pMECS-expressed; also called VHH numbered 14) VHH: QVQLQESGGGSVQTGGSLRLSCAASTSIYSNNYMAWFSQAPGKGREGVAAVYIDDGRPYYADSVKGRFTISLDSAKNTVYLQVNSLKPEDTAMYYCAAAPGPLSRNYWYTSANYDYWGQGTQVTVSS",> 20
6,"SEQ ID NO 13 (VHH, pMECS-expressed; also called VHH numbered 13) VHH: QVQLQESGGGSVQTGGSLRLSCAASTSIYSNNYMAWFSQNPGKGREGVAAVYIGDGRPYYADSVKGRFTISLDSAKNTVYLQMNSLKPEDTAMYYCAAAPGPLSRNYWYTSANYDYWGQGTQVTVSS",> 20
7,"SEQ ID NO 22 (VHH, pMECS-expressed; also called VHH numbered 22) VHH: QVQLQESGGGSVQTGGSLRLSCAASTSIYSNNYMAWFSQAPRKGREGVAAVYIGDGRPYYADSVKGRFTISLDSAKNTVYLQMNSLKPEDTAMYYCAAAPGPLSHNYWYTSANYDYWGQGTQVTVSS",> 20
8,"SEQ ID NO 16 (VHH, pMECS-expressed; also called VHH numbered 16) VHH: QVQLQESGGGSVQTGGSLRLSCAASPSIYSNNYMAWFSQAPGKGREGVAAVYIGDGRPYYADSVKGRFTISLDSAKNTVYLQMNSLKPEDTAMYYCAAAPGPLSRNYWYTSANYDYWGQGTQVTVSS",> 20
9,"SEQ ID NO 23 (VHH, pMECS-expressed; also called VHH numbered 23) VHH: QVQLQESGGGSVQTGGSLRLSCAASTSLYSYNYMAWFSQAPGKGREGVAAVYVGDGRPYYADSVKGRFTISLDSAKNTVYLQMNSLKPEDTAMYYCAAAPGPLSHNYWYTSANYDYWGQGTQVTVSS",> 20
10,"SEQ ID NO 24 (VHH, pMECS-expressed; also called VHH numbered 24) VHH: QVQLQESGGGSVQTGGSLRLSCTASTSIYSNNYMAWFSQSPGKGREGVAAVYMDDGRPYYADSVKGRFTISLDSAKNTMYLQMNSLKPEDTAMYYCAAAPGPLSRNYWYTSANYDYWGQGTQVTVSS",> 20

# Continued, values first:
row,OD ratio (experimental group (A405 nm)/control group (A405 nm)),Binder
1,> 20,"SEQ ID NO 31 (VHH, pMECS-expressed; also called VHH numbered 31) VHH: QVQLQESGGGSVQTGGSLRLSCAASTSIYSNNYMAWFRQAPGKGREGVAGVYIGDGRPYYADSVKGRFTISLDSAKNTVYLQMNSLKPEDTAMYYCAAAPGPLSHHYWYTSANYDYWGPGTQVTVSS"
2,> 20,"SEQ ID NO 27 (VHH, pMECS-expressed; also called VHH numbered 27) VHH: QVQLQESGGGSVQTGGSLRLSCTASTSIYSNNYMAWFSQSPGKGREGVAAVYMDDGRPYYADSVKGRFTISLDSAKNTMYLQMNSLKPEDTAMYYCAAAPGPLSRNYWYTSANYDYWGQGTQVTVSS"
3,> 20,"SEQ ID NO 28 (VHH, pMECS-expressed; also called VHH numbered 28) VHH: QVQLQESGGGSVQTGGSLRLSCAASTSIYSNNYMAWFRQAPGKGREGVAAVYIDDGRPYYADSVKGRFTISLDSAKNTVYLQMNSLKPEDTAMYYCAAAPGPLSRHYWYTSANYDYWGPGTQVTVSS"
4,> 20,"SEQ ID NO 30 (VHH, pMECS-expressed; also called VHH numbered 30) VHH: QVQLQESGGGSVQTGGSLRLSCTASTSIYSNNYMAWFSQAPGKGREGVAAVYIDDGRPYYADSVKGRFTISLDSAKNTVYLQMNSLKPEDTAMYYCAAAPGPLSRNYWYTSANYDYWGQGTQVTVSS"
5,> 20,"SEQ ID NO 25 (VHH, pMECS-expressed; also called VHH numbered 25) VHH: QVQLQESGGGSVQTGGSLRLSCTASTSIYSNNYMAWFSQAPGKGREGVAAVYIGDGRPYYADSVKGRFTISLDSAKNTVYLQMNSLKPEDTAMYYCAAAPGPLSHNYWYTSANYDYWGQGTQVTVSS"
6,> 20,"SEQ ID NO 36 (VHH, pMECS-expressed; also called VHH numbered 36) VHH: QVQLQESGGGSVQTGGSLRLSCAASTSLYSYNYMAWFSQAPGKGREGVAAVYVGDGRPYYAASVKGRFTISLDSAKNTVYLQMNSLKPEDTAMYYCAAAPGPLSHNYWYTSANYDYWGQGTQVTVSS"
7,> 20,"SEQ ID NO 37 (VHH, pMECS-expressed; also called VHH numbered 37) VHH: QVQLQESGGGSVQTGGSLRLSCAASTSIYSINYMAWFRQAPGKGREGVAAVYIDDGRPYYADSVKGRFTISLDSAKNTVYLQMTSLKSEDTAMYYCAAAPGPLSRSYWYTSANYDYWGQGTQVTVSS"
8,> 20,"SEQ ID NO 29 (VHH, pMECS-expressed; also called VHH numbered 29) VHH: QVQLQESGGGSVRTGGSLRLSCAASPSIYSNNYMAWFSQAPGKGREGVAAVYIDDGRPYYADSVKGRFTISLDSAKNTVYLQMNSLKPEDTAMYYCAAAPGPLSRNYWYTSANYDYWGQGTQVTVSS"
9,> 20,"SEQ ID NO 32 (VHH, pMECS-expressed; also called VHH numbered 32) VHH: QVQLQESGGGSVQTGGSLRLSCAASTSIYSINYMAWFSQAPGKGREGVAAVYIGDGRPYYADSVKGRFTISLDSAKNTVYLQMNSLKPEDTAMYYCAAAPGPLSQHYWYTSANYDYWGQGTQVTVSS"
10,> 20,"SEQ ID NO 35 (VHH, pMECS-expressed; also called VHH numbered 35) VHH: QVQLQESGGGSVQTGGSLRLSCTASTSIYSNNYMAWFSQAPGKGREGVAAVYIDDGRPYYADSVKGRFTISLDSAKNTVYLQMNSLKPEDTAMYYCAAAPGPLSRNYWYTSANYDYWGQGTQVTVSS"
11,> 20,"SEQ ID NO 26 (VHH, pMECS-expressed; also called VHH numbered 26) VHH: QVQLQESGGGSVQTGGSLRLSCAASTSIYNNNYMAWFSQAPGKEREGVAAVYIGDGRPYYADSVKGRFTISLDSAKNTVYLQMNSLKPEDTAMYYCAAAPGPLSRNYWYTSANYDYWGQGTQVTVSS"
12,> 20,"SEQ ID NO 33 (VHH, pMECS-expressed; also called VHH numbered 33) VHH: QVQLQESGGGSVQTGGSLRLSCACSTSIYSNNYMAWFSQAPGKGREGVAAVYIGDGRPYYADSVKGRFTISLDSAKNTMYLQMNSLKPEDTAMYYCAAAPGPLSQHYWYTSANYDYWGQGTQVTVSS"
